Measurements published in patent US20170137504A1 (TERACLON IDF S L, published 2017).

Columns and labels:
[1] = molecular target: T1, VEGF (4 ng/mL, added in the in vitro angiogenesis assay) (UniProt P15692-4 27-191, limits assumed); assay: cell-based or functional assay
[2] = molecular target: T1, VEGF (4 ng/mL, added in the in vitro …); assay: cell-based or functional assay; remark: listed apart in the source

T1 sequence (P15692 other isoform, or with tags, fused parts or gaps limits assumed): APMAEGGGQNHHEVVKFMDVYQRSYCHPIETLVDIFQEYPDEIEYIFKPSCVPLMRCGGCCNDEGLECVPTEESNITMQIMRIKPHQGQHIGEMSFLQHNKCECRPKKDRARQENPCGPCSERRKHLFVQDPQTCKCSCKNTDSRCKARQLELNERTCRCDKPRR

B1: anti-VEGF vNAR V32R (VNAR, not shown: small tags and cut ends)
chain: AASLDQTPRTATRETGESLTINCVFTDSSCGLCGTSWFRNNPGSTDWERITIGGRYVESVNKGAKSFSLQIKDLTVEDSVTYYCKAQGHRYFSKVCELRCPSYYYDGAGTVLTVN
For B1, the “IC50, average value (in vitro angiogenesis, HUVEC/NHDF co-culture)” value [1] was 23.4 µg/mL, the “IC50, branching points (in vitro angiogenesis, HUVEC/NHDF co-culture)” value [1] was 19.3 µg/mL and the “IC50, length of the tubes (in vitro angiogenesis, HUVEC/NHDF co-culture)” value [1] was 27.6 µg/mL. For the same binder, the “fold less antibody concentration than V13 for an inhibitory effect on angiogenesis” value [2] was ≤ 12 times less.

B2: anti-VEGF vNAR V19 (VNAR, not shown: small tags and cut ends)
VNAR: AQRVEQTPRTATKETGESLTINCVLRDASFELKDTGWYRTKLGSTNEQSISIGGRYVETVNKGSKSFSLRISDLRVEDSGTYKCQAFYSLPLGDYNYSLLFRGEKGAGTVLTVN
For B2, the “IC50, average value (in vitro angiogenesis, HUVEC/NHDF co-culture)” value [1] was 30.2 µg/mL, the “IC50, branching points (in vitro angiogenesis, HUVEC/NHDF co-culture)” value [1] was 24.7 µg/mL and the “IC50, length of the tubes (in vitro angiogenesis, HUVEC/NHDF co-culture)” value [1] was 35.8 µg/mL. The “fold less antibody concentration than V13 for an inhibitory effect on angiogenesis” value [2] was ≤ 12 times less.

B3: anti-VEGF vNAR V13 (other, not shown: small tags and cut ends)
chain: ASLDQTPRTATRETGESLSINCVLTDTSHILFGTKWLWNNPGSTDWESITIGGRYAESVNNQAKSFSLQIKDLTVEDSGTYYCKAQTIGRRKNLLPRPLVNGIAAMGYSSSDYDGAGTVLTVN
B3 was tested, and the “IC50, average value (in vitro angiogenesis, HUVEC/NHDF co-culture)” value [1] was 388 µg/mL, the “IC50, branching points (in vitro angiogenesis, HUVEC/NHDF co-culture)” value [1] was 340 µg/mL and the “IC50, length of the tubes (in vitro angiogenesis, HUVEC/NHDF co-culture)” value [1] was 436 µg/mL.
